± gives the standard deviation of the averaged measurements.
Tested on: ATP
Assay: switch fluorescence ratio, 500 uM ATP over buffer (Cy3 cluster intensity, sum of 5 cycles each) (fold (ratio)); higher = stronger signal-on switching upon ATP binding; sequences stand for … in TCGTCGGCAGCGTCAGATGTGTATAAGAGACAGTTTTTTTTTTTTTTTTTTTTTTTTT…TC
Settings: aptamer strand: ATP DNA aptamer (quencher-CACCTGGGGGAGTATTGCGGAGGAAGG + anchor), 100 nM annealed; ATP concentration: 500 uM
How it was run: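 For every switch-domain sequence, the fluorescence ratio is the mean of per-cluster values, each being summed target-cycle Cy3 intensity over summed buffer-cycle Cy3 intensity. Clusters outside 100-1000 RFU were excluded. On a modified Illumina MiSeq flow-cell, the Cy3-labelled switching-strand clusters were annealed to 100 nM quencher-labelled ATP aptamer, imaged in selection buffer and then after 15 min with 500 uM ATP at 22 °C. Five such cycles were run, with NaOH stripping and re-annealing between them.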
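Further: ATP exposure 15 min at 22 °C before imaging.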

| Sequence | switch fluorescence ratio |
| --- | --- |
| GTGGTACGGA | 1.0044 ± 0.00029 |
| GTGGTATATG | 0.997 ± 0.0073 |
| GTGGTCAGGC | 0.975 ± 0.022 |
| GTGGTCAGGG | 0.9855 ± 0.0092 |
| GTGGTCGAGA | 0.986 ± 0.033 |
| GTGGTCGGTA | 0.952 ± 0.084 |
| GTGGTCTCCG | 0.982 ± 0.038 |
| GTGGTGAAGG | 0.99 ± 0.039 |
| GTGGTGAGGT | 0.966 ± 0.02 |
| GTGGTGCGGA | 0.943 ± 0.052 |
| GTGGTGGGAC | 0.972 ± 0.042 |
| GTGGTGGGGA | 1 ± 0.024 |
| GTGGTGGGGT | 1.01 ± 0.028 |
| GTGGTGGGTA | 0.947 ± 0.073 |
| GTGGTGTATC | 1.02 ± 0.019 |
| GTGGTGTCGT | 0.984 ± 0.016 |
| GTGGTGTGTT | 1.05 ± 0.14 |
| GTGGTGTTTT | 1 ± 0.015 |
| GTGGTTGGGG | 1.01 ± 0.028 |
| GTGGTTGGTA | 1.02 ± 0.03 |
| GTGGTTTCTG | 0.984 ± 0.1 |
| GTGGTTTTTT | 0.996 ± 0.022 |
| GTGTAAAGAC | 1.03 ± 0.053 |

| Sequence | switch fluorescence ratio |
| --- | --- |
| GTGTAAAGTG | 0.949 ± 0.047 |
| GTGTAAAGTT | 0.972 ± 0.021 |
| GTGTAAGATG | 1.0023 ± 0.0005 |
| GTGTAATGAG | 0.964 ± 0.014 |
| GTGTACGGGG | 0.971 ± 0.026 |
| GTGTACGGGT | 0.991 ± 0.012 |
| GTGTAGGGGA | 1.0019 ± 0.00055 |
| GTGTATAGCA | 1.03 ± 0.014 |
| GTGTATATCG | 0.991 ± 0.012 |
| GTGTATCGTC | 0.9819 ± 0.0014 |
| GTGTATGAGA | 1.002 ± 0.0083 |
| GTGTCAATTT | 1.13 ± 0.17 |
| GTGTCATAGC | 0.975 ± 0.012 |
| GTGTCATTTA | 0.99 ± 0.035 |
| GTGTCCATTG | 0.998 ± 0.074 |
| GTGTCGGGGA | 1.01 ± 0.071 |
| GTGTCGGGGT | 1.002 ± 0.004 |
| GTGTCTAAAT | 0.989 ± 0.011 |
| GTGTCTACAT | 1.02 ± 0.014 |
| GTGTCTTGGA | 0.9893 ± 0.0052 |
| GTGTGAAAGC | 1.011 ± 0.0035 |
| GTGTGACACG | 1.04 ± 0.064 |
| GTGTGACCGT | 1.02 ± 0.024 |

| Sequence | switch fluorescence ratio |
| --- | --- |
| GTGTGCTAGT | 0.975 ± 0.02 |
| GTGTGGTGTT | 0.986 ± 0.016 |
| GTGTGTCAGT | 0.964 ± 0.013 |
| GTGTGTGGGA | 1 ± 0.026 |
| GTGTGTGGGC | 1.04 ± 0.061 |
| GTGTGTGGTC | 1 ± 0.021 |
| GTGTGTTGTC | 1.01 ± 0.02 |
| GTGTTAAAGG | 0.992 ± 0.013 |
| GTGTTAATGA | 0.967 ± 0.019 |
| GTGTTAATGG | 0.998 ± 0.022 |
| GTGTTAGATC | 0.98 ± 0.017 |
| GTGTTAGGCG | 0.981 ± 0.018 |
| GTGTTATAGG | 1 ± 0.026 |
| GTGTTATATT | 1.004 ± 0.0089 |
| GTGTTCAGGG | 1.02 ± 0.021 |
| GTGTTCATGG | 1 ± 0.012 |
| GTGTTCGGCG | 1.07 ± 0.066 |
| GTGTTCTTGC | 0.9845 ± 0.0043 |
| GTGTTGGCTT | 0.995 ± 0.033 |
| GTGTTGTCGG | 1.01 ± 0.026 |
| GTGTTGTTCG | 0.995 ± 0.015 |
| GTGTTTAGTG | 0.9787 ± 0.0029 |
| GTGTTTCCGG | 1.01 ± 0.045 |

| Sequence | switch fluorescence ratio |
| --- | --- |
| GTGTTTGCTA | 1.02 ± 0.032 |
| GTGTTTTATT | 1.01 ± 0.036 |
| GTGTTTTCCT | 1.04 ± 0.017 |
| GTGTTTTCGG | 0.985 ± 0.016 |
| GTGTTTTGGC | 1.02 ± 0.029 |
| GTGTTTTTTG | 0.968 ± 0.019 |
| GTGTTTTTTT | 0.991 ± 0.023 |
| GTTAAAAACA | 1.03 ± 0.052 |
| GTTAAAGGGT | 1.01 ± 0.0075 |
| GTTAACCCAT | 1.0083 ± 4.1e-05 |
| GTTAACGATA | 1.03 ± 0.038 |
| GTTAACGTTT | 0.982 ± 0.036 |
| GTTAACTCCA | 1.02 ± 0.022 |
| GTTAACTTTG | 1.0027 ± 0.00076 |
| GTTAAGTAGC | 0.971 ± 0.025 |
| GTTAAGTTTT | 0.985 ± 0.021 |
| GTTAATATAA | 0.9971 ± 0.003 |
| GTTAATGTAA | 0.9934 ± 0.0059 |
| GTTAATTGAT | 1 ± 0.027 |
| GTTAATTTAG | 0.987 ± 0.01 |
| GTTACAGTGG | 1 ± 0.061 |
| GTTACGAAAA | 1 ± 0.056 |
| GTTACGGGAC | 1.24 ± 0.015 |

| Sequence | switch fluorescence ratio |
| --- | --- |
| GTTACGGGGG | 1.02 ± 0.031 |
| GTTACTGGTG | 1.05 ± 0.027 |
| GTTACTGTGC | 1.08 ± 0.025 |
| GTTAGAAAAA | 1.03 ± 0.023 |
| GTTAGAAAAT | 1.01 ± 0.03 |
| GTTAGACTAT | 0.99057 ± 0.00092 |
| GTTAGAGAGC | 1.06 ± 0.0068 |
| GTTAGAGGGT | 1.01 ± 0.021 |
| GTTAGAGTCA | 1.01 ± 0.013 |
| GTTAGATGTT | 1 ± 0.011 |
| GTTAGCATTG | 1 ± 0.029 |
| GTTAGCCGCT | 1.03 ± 0.014 |
| GTTAGGATGG | 1.01 ± 0.044 |
| GTTAGGGGAA | 1.02 ± 0.031 |
| GTTAGGGGGG | 0.979 ± 0.036 |
| GTTAGGGGTT | 0.996 ± 0.024 |
| GTTAGGTTGG | 0.9811 ± 0.007 |
| GTTAGTAGTG | 0.952 ± 0.022 |
| GTTAGTATAT | 1 ± 0.018 |
| GTTAGTCAAA | 0.991 ± 0.01 |
| GTTATAGCGT | 0.963 ± 0.026 |
| GTTATATGGA | 0.996 ± 0.018 |
| GTTATCAGTT | 0.99 ± 0.014 |

| Sequence | switch fluorescence ratio |
| --- | --- |
| GTTATCATTT | 0.989 ± 0.011 |
| GTTATCTAGC | 0.994 ± 0.017 |
| GTTATGGGGT | 1.01 ± 0.04 |
| GTTATTACGA | 1.005 ± 0.0041 |
| GTTATTATAG | 0.992 ± 0.005 |
| GTTATTATGC | 0.952 ± 0.035 |
| GTTATTGGTA | 1.01 ± 0.018 |
| GTTATTTACG | 1.02 ± 0.033 |
| GTTATTTATT | 0.995 ± 0.047 |
| GTTATTTGGG | 0.979 ± 0.035 |
| GTTATTTTAC | 1.01 ± 0.031 |
| GTTATTTTGT | 0.99 ± 0.019 |
| GTTCAAGATA | 1 ± 0.036 |
| GTTCAGATTG | 1.03 ± 0.0048 |
| GTTCAGTTGC | 0.996 ± 0.033 |
| GTTCAGTTTG | 1.03 ± 0.031 |
| GTTCATAAAG | 0.98 ± 0.028 |
| GTTCCAGTTT | 1.039 ± 0.006 |
| GTTCCGCCGA | 1.23 ± 0.026 |
| GTTCCGGTTT | 1.01 ± 0.034 |
| GTTCCTATGA | 1.01 ± 0.043 |
| GTTCCTCATT | 1.45 ± 0.61 |
| GTTCGAAAAA | 0.961 ± 0.09 |

| Sequence | switch fluorescence ratio |
| --- | --- |
| GTTCGAAAGG | 1.022 ± 0.0095 |
| GTTCGAGAGC | 0.995 ± 0.057 |
| GTTCGGGATT | 0.981 ± 0.023 |
| GTTCGGGGGT | 0.986 ± 0.025 |
| GTTCTAGTGT | 0.972 ± 0.04 |
| GTTCTATATT | 0.986 ± 0.062 |
| GTTCTATCAG | 0.995 ± 0.09 |
| GTTCTCCTGA | 1.01 ± 0.014 |
| GTTCTGGGGT | 1 ± 0.016 |
| GTTCTTGATG | 0.967 ± 0.015 |
| GTTCTTGGAG | 0.9991 ± 0.0031 |
| GTTCTTGTAA | 1.017 ± 0.0088 |
| GTTGAAAATT | 0.99 ± 0.021 |
| GTTGAACGGT | 1.1 ± 0.053 |
| GTTGAAGAAA | 0.998 ± 0.072 |
| GTTGAATCTG | 1.26 ± 0.36 |
| GTTGACCGGC | 0.996 ± 0.011 |
| GTTGAGCGGG | 0.9786 ± 0.0069 |
| GTTGAGTAGG | 0.994 ± 0.012 |

— the supplement of paper PMC10126150
